Values belong to the binder of their own block, whether it stands above or below them.
Target: CD40 receptor on a stable CHO cell line (Homo sapiens, UniProt P25942)
Assay: flow cytometry on cells

Sequence of CD40 receptor on a stable CHO cell line (P25942 21-277): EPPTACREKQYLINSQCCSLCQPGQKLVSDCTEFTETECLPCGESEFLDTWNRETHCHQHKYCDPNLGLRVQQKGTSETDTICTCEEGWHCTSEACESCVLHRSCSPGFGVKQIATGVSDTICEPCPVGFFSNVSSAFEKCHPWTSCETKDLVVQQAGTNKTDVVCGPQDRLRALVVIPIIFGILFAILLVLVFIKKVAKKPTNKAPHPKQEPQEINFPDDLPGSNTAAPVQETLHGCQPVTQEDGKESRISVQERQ

binding result: binds
B1: anti-CD40 rAb with H chain C-terminal dockerin (antibody, V domains shown)
VH: EVKLVESGGGLVQPGGSLKLSCATSGFTFSDYYMYWVRQTPEKRLEWVAYINSGGGSTYYPDTVKGRFTISRDNAKNTLYLQMSRLKSEDTAMYYCARRGLPFHAMDYWGQGTSVTVSS
VL: DIQMTQTTSSLSASLGDRVTISCSASQGISNYLNWYQQKPDGTVKLLIYYTSILHSGVPSRFSGSGSGTDYSLTIGNLEPEDIATYYCQQFNKLPPTFGGGTKLEIK

binding result: binds
B2: recombinant anti-CD40 rAb (antibody, V domains shown)
VH: B1 VH
VL: B1 VL

— paper PMC3424314 (Journal of immunology (Baltimore, Md. : 1950), 2012)
